T1: extracellular portion of cynomolgus monkey CD137 fused to a histidine-containing peptide (cynomolgus monkey, UniProt A9YYE7 24-186)
T1 construct: extracellular domain; also called cynoCD137
T1 sequence: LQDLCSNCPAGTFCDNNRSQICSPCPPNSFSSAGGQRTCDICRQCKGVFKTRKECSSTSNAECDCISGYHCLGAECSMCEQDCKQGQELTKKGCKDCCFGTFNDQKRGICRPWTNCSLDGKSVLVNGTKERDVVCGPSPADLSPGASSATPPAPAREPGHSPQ

B1: DART-G (bispecific antibody, human IgG1, kappa, L234A L235A)
heavy: QVQLVQSGAEVKKPGASVKVSCKASGYTFTNYGMNWVRQAPGQGLEWMGWINTNIGEPTYTEEFKGRVTMTRDTSISTAYMELSRLRSDDTAVYYCARDDGYGNRVSYWGQGTLVTVSSASTKGPSVFPLAPSSKSTSGGTAALGCLVKDYFPEPVTVSWNSGALTSGVHTFPAVLQSSGLYSLSSVVTVPSSSLGTQTYICNVNHKPSNTKVDKRVEPKSCDKTHTCPPCPAPEAAGGPSVFLFPPKPKDTLMISRTPEVTCVVVDVSHEDPEVKFNWYVDGVEVHNAKTKPREEQYNSTYRVVSVLTVLHQDWLNGKEYKCKVSNKALPAPIEKTISKAKGQPREPQVYTLPPSREEMTKNQVSLSCAVKGFYPSDIAVEWESNGQPENNYKTTPPVLDSDGSFFLVSKLTVDKSRWQQGNVFSCSVMHEALHNRYTQKSLSLSPGK
light: DIQMTQSPSSLSASVGDRVTITCKASQDISNYLSWFQQKPGKAPKTLIYRANRLQSGVPSRFSGSGSGTDFTLTISSLQPEDFATYYCLQHDEFPWTFGQGTKLEIKRTVAAPSVFIFPPSDEQLKSGTASVVCLLNNFYPREAKVQWKVDNALQSGNSQESVTEQDSKDSTYSLSSTLTLSKADYEKHKVYACEVTHQGLSSPVTKSFNRGEC
chain 1: QVQLVQSGAEVKKPGASVKVSCKASGYTFTNYGMNWVRQAPGQGLEWMGWINTNIGEPTYTEEFKGRVTMTRDTSISTAYMELSRLRSDDTAVYYCARDDGYGNRVSYWGQGTLVTVSSASTKGPSVFPLAPSSKSTSGGTAALGCLVKDYFPEPVTVSWNSGALTSGVHTFPAVLQSSGLYSLSSVVTVPSSSLGTQTYICNVNHKPSNTKVDKRVEPKSCDKTHTCPPCPAPEAAGGPSVFLFPPKPKDTLMISRTPEVTCVVVDVSHEDPEVKFNWYVDGVEVHNAKTKPREEQYNSTYRVVSVLTVLHQDWLNGKEYKCKVSNKALPAPIEKTISKAKGQPREPQVYTLPPSREEMTKNQVSLWCLVKGFYPSDIAVEWESNGQPENNYKTTPPVLDSDGSFFLYSKLTVDKSRWQQGNVFSCSVMHEALHNHYTQKSLSLSPGGGGSGGGSGGGDIQMTQSPSSLSASVGDRVTITCRPSQDISNYLNWYQQKPDKTVKLLIYYTSRLRSGVPSRFSGSGSGTDFTFTISSLQPEDIATYFCQQGDTLPYTFGQGTKLEIKGGGSGGGGQVQLVQSGAEVKKPGASVKVSCKASGYTFTSYWINWVKQAPGQGLEWIGNIYPSDSYTNYNQKFKDKATITADKSTSTAYMELSSLRSEDTAVYYCTRDYGSSYSFDYWGQGTTVTVSSGGCGGGEVAALEKEVAALEKEVAALEKEVAALEK
chain 2: DIQMTQSPSSLSASVGDRVTITCRPSQDISNYLNWYQQKPDKTVKLLIYYTSRLRSGVPSRFSGSGSGTDFTFTISSLQPEDIATYFCQQGDTLPYTFGQGTKLEIKGGGSGGGGQVQLVQSGAEVKKPGASVKVSCKASGYTFTSYWINWVKQAPGQGLEWIGNIYPSDSYTNYNQKFKDKATITADKSTSTAYMELSSLRSEDTAVYYCTRDYGSSYSFDYWGQGTTVTVSSGGCGGGKVAALKEKVAALKEKVAALKEKVAALKE
B2: DART-D (bispecific antibody, human IgG1, kappa, L234A L235A)
heavy: B1 heavy
light: B1 light
chain 1: QVQLVQSGAEVKKPGASVKVSCKASGYTFTNYGMNWVRQAPGQGLEWMGWINTNIGEPTYTEEFKGRVTMTRDTSISTAYMELSRLRSDDTAVYYCARDDGYGNRVSYWGQGTLVTVSSASTKGPSVFPLAPSSKSTSGGTAALGCLVKDYFPEPVTVSWNSGALTSGVHTFPAVLQSSGLYSLSSVVTVPSSSLGTQTYICNVNHKPSNTKVDKRVEPKSCDKTHTCPPCPAPEAAGGPSVFLFPPKPKDTLMISRTPEVTCVVVDVSHEDPEVKFNWYVDGVEVHNAKTKPREEQYNSTYRVVSVLTVLHQDWLNGKEYKCKVSNKALPAPIEKTISKAKGQPREPQVYTLPPSREEMTKNQVSLWCLVKGFYPSDIAVEWESNGQPENNYKTTPPVLDSDGSFFLYSKLTVDKSRWQQGNVFSCSVMHEALHNHYTQKSLSLSPGGGGSGGGSGGGDIQMTQTTSSLSASLGDRVTISCRPSQDISNYLNWYQQKPDGTVKLLIYYTSRLRSGVPSRFSGSGSGTDYSLTISNLEQEDIATYFCQQGDTLPYTFGGGTKLEIKGGGSGGGGQVQLQQPGAELVRPGASVKLSCKASGYTFTSYWINWVKQRPGQGLEWIGNIYPSDSYTNYNQKFKDKATLTVDKSSSTAYMQLSSPTSEDSAVYYCTRDYGSSYSFDYWGQGTTLTVSSGGCGGGEVAALEKEVAALEKEVAALEKEVAALEK
chain 2: DIQMTQTTSSLSASLGDRVTISCRPSQDISNYLNWYQQKPDGTVKLLIYYTSRLRSGVPSRFSGSGSGTDYSLTISNLEQEDIATYFCQQGDTLPYTFGGGTKLEIKGGGSGGGGQVQLQQPGAELVRPGASVKLSCKASGYTFTSYWINWVKQRPGQGLEWIGNIYPSDSYTNYNQKFKDKATLTVDKSSSTAYMQLSSPTSEDSAVYYCTRDYGSSYSFDYWGQGTTLTVSSGGCGGGKVAALKEKVAALKEKVAALKEKVAALKE

Legend:
[1] = target: T2, CD137 on the surface of cells (activated human T cells; engineered CHO cells) (human, UniProt Q07011 24-255); experiment: flow cytometry on CD137-expressing CHO cells (CHO/137), anti-hFc APC MFI
T2 construct: whole, on cells; also called human CD137; cell surface expressed CD137
T2 sequence (Q07011 24-255, change not shown): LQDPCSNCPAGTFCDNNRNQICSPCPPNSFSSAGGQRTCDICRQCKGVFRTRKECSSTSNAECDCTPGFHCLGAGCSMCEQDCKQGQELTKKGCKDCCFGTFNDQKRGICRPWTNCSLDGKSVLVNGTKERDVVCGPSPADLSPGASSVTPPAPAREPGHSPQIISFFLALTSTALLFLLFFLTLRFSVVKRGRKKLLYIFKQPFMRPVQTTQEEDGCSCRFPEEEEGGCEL

[2] = target: T2, CD137 on the surface of cells …; experiment: as above; remark: listed apart in the source
[3] = target: T1, extracellular portion of cynomolgus …; experiment: SPR (BIACORE); molecule captured on anti-human Fc; cynoCD137 6.25-100 nM; column head ×10^-4 applied as printed
Procedure: (§1) The amino acid sequences of these clones were incorporated into the 5 chain diabody DART-G to yield optimized DART-G molecules (designated as DART-G1, DART-G2; DART-G3, and DART-G4). The binding affinity of DART-G2, DART-G3, and DART-G4 were evaluated via BIAcore (Table 11). For such evaluation, His-tagged soluble human CD137 (huCD137) or cynomolgus monkey CD137 (cynoCD137) (containing an extracellular portion of human or cynomolgus monkey CD137 fused to a histidine-containing peptide) was passed over a surface coated with immobilized antibody. Briefly, each test molecule was captured onto an F(ab)₂ goat-anti-human Fc-coated surface and then incubated in the presence of different concentrations (6.25-100 nM) of huCD137 or cynoCD137. The kinetics of binding were determined via BIACORE® analysis binding (normalized 1:1 Langmuir binding model).

[4] = target: T2, CD137 on the surface of cells …; experiment: flow cytometry on activated CD8+ T cells (CD8 FITC), anti-hFc APC MFI
[5] = target: T1, extracellular portion of cynomolgus …; experiment: SPR (BIACORE); molecule captured on anti-human Fc; cynoCD137 6.25-100 nM; 1:1 Langmuir
Procedure: as §1

[6] = target: T3, HER2/neu on the surface of target cells (N87, JIMT-1, MCF-7, MDA-MB231) (UniProt P04626 23-1255, limits assumed); experiment: flow cytometry on JIMT-1 cells, anti-hFc APC MFI
T3 construct: whole, on cells

[7] = target: T3, HER2/neu on the surface of target cells …; experiment: flow cytometry on JIMT-1 cells, anti-hFc APC MFI; remark: listed apart in the source
Procedure: (§2) CD137×TA Binding Molecules, DART-B, DART-D, DART-G and the control molecules DART-3 and DART-6 were additionally evaluated for their ability to bind to HER2/neu expressed on N87 cells (FIG. 13A) and JIMT-1 cells (FIG. 13B). For such evaluation, 100 μL of HER2/neu expressing target cells (1.0×1⁰⁶ cells/mL) and 100 μL of serially diluted (5- or 10-fold dilutions) test article (bispecific diabody) were added to each well of microtiter assay plate(s), mixed and incubated at RT for 45 min. The cells were washed with FACS Buffer and secondary antibody (anti-human-Fc region-APC) was then added to each well; mixed and incubated at RT for 30 min. Cells were washed and resuspended in 100 μL FACS Buffer and analyzed by flow cytometry (BD LSR Fortessa or FACSCanto 11) for cell event collection. Data analysis were performed via FloJo v10.

[8] = target: T2, CD137 on the surface of cells …; experiment: flow cytometry on activated CD8+ T cells (donor D53781, CD8 FITC), anti-hFc APC MFI
[9] = target: T4, extracellular portion of human CD137 fused to a histidine-containing peptide (human, UniProt Q07011 24-186); experiment: SPR (BIACORE); molecule captured on anti-human Fc; huCD137 6.25-100 nM; 1:1 Langmuir
T4 construct: extracellular domain; also called huCD137; His-tagged soluble human CD137
Procedure: as §1

[10] = target: T3, HER2/neu on the surface of target cells …; experiment: flow cytometry on N87 cells, anti-hFc APC MFI
Procedure: as §2

[11] = target: T2, CD137 on the surface of cells …; experiment: flow cytometry on activated pan T cells (donor D46433, CD8 PE), anti-hFc APC MFI
[12] = target: T3, HER2/neu on the surface of target cells …; experiment: flow cytometry on N87 cells, anti-hFc APC MFI; remark: listed apart in the source
[13] = target: T3, HER2/neu on the surface of target cells …; experiment: flow cytometry on MCF-7 cells, anti-hFc APC MFI
[14] = target: T3, HER2/neu on the surface of target cells …; experiment: flow cytometry on N87 gastric cancer cells, anti-hFc APC MFI
[15] = target: T3, HER2/neu on the surface of target cells …; experiment: as above; remark: listed apart in the source
[16] = target: T2, CD137 on the surface of cells …; experiment: flow cytometry on activated pan T cells gated CD8, anti-hFc APC MFI
[17] = target: T2, CD137 on the surface of cells …; experiment: as above; remark: listed apart in the source

Row | Binder | EC50 (read off the curve) [1] | EC50 (read off the curve) [2] | koff [3] | EC50 (read off the curve) [4] | Kd [5] | kon [5] | EC50 (read off the curve) [6] | EC50 (read off the curve) [7] | EC50 (read off the curve) [8] | Kd [9] | koff [9] | kon [9] | EC50 (read off the curve) [10] | EC50 (read off the curve) [11] | EC50 (read off the curve) [12] | EC50 (read off the curve) [13] | EC50 (read off the curve) [14] | EC50 (read off the curve) [15] | EC50 (read off the curve) [16] | EC50 (read off the curve) [17]
1 | B1 | ~0.02 µg/mL | ~0.02 µg/mL | 0.045 s⁻¹ | ~0.03 µg/mL | 115 nM | 390000 M⁻¹ s⁻¹ | ~0.2 nM | ~0.04 µg/mL | ~0.03 µg/mL | 114 nM | 0.042 s⁻¹ | 370000 M⁻¹ s⁻¹ | ~0.1 µg/mL | ~0.1 nM | ~0.5 nM | ~0.09 nM | – | – | – | –
2 | B2 | ~0.02 µg/mL | – | 0.031 s⁻¹ | ~0.02 µg/mL | 67 nM | 460000 M⁻¹ s⁻¹ | – | ~0.03 µg/mL | – | 53 nM | 0.025 s⁻¹ | 470000 M⁻¹ s⁻¹ | ~0.07 µg/mL | – | – | – | ~0.5 nM | ~0.5 nM | ~0.2 nM | ~0.2 nM
